For one data set, the target named is LIG1 wild-type (UniProt P18858 262-919). As to the kind of experiment: X-ray crystallography; AMP, pre-catalytic (DNA-AMP); EDTA, no metal added; BLI: 20 mM HEPES pH 7.4, 200 mM NaCl, 0.5% BSA, 0.05% Tween 20, 40 nM DNA loaded, sensors hydrated at 20 C; crystals: 20 mM Tris-HCl pH 7.0, 200 mM NaCl, 1 mM DTT, 1 mM EDTA, 1 mM ATP, 1.4:1 DNA:protein, 20 C. The settings on record: protein: recombinant; tags: 6xHis; nicked duplex, blunt outer ends; 8-oxoG:C Watson-Crick pair at nick.

Data set [1] deals with T1, LIG1 EE/AA (C-terminal, Δ261) (UniProt P18858 262-919, E346A;E592A). Described as above. The settings on record: protein: recombinant, tags: 6xHis, nicked duplex, blunt outer ends.
Data set [2] concerns the target T1, LIG1 EE/AA (C-terminal, Δ261). In words: X-ray crystallography; post-catalytic, nick sealed; EDTA, no metal added; BLI: 20 mM HEPES pH 7.4, 200 mM NaCl, 0.5% BSA, 0.05% Tween 20, 40 nM DNA loaded, sensors hydrated at 20 C; crystals: 20 mM Tris-HCl pH 7.0, 200 mM NaCl, 1 mM DTT, 1 mM EDTA, 1 mM ATP, 1.4:1 DNA:protein, 20 C. The settings on record: protein: recombinant; tags: 6xHis; nicked duplex, blunt outer ends; 8-oxorG:A Hoogsteen pair; nick sealed in crystal.

T1 sequence (P18858 262-919 E346A/E592A): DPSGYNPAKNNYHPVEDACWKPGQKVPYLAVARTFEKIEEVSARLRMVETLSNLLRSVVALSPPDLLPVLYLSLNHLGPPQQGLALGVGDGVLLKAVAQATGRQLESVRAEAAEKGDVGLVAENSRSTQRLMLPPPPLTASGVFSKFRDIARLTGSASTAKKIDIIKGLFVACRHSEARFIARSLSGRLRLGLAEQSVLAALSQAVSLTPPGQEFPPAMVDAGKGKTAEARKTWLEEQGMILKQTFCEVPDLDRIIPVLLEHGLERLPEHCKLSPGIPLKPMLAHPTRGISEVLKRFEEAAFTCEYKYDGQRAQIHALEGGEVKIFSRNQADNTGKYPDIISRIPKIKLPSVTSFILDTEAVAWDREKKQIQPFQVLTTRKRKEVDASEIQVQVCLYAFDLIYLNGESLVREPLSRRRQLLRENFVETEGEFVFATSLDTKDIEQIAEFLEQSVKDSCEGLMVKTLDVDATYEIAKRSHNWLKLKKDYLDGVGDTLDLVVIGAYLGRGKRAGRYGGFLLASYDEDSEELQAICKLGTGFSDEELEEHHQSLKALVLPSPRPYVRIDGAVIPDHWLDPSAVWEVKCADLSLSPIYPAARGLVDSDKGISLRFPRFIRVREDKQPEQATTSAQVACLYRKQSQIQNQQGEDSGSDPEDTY
LIG1 wild-type, sequence (P18858 262-919): as the sequence (P18858 262-919 E346A/E592A) above, with A85E, A331E counted along it

B1: nick 3'-8-oxodG:C (dsDNA)
DNA 1: GCTGATGCGTG
DNA 2: GTCGGAC
DNA 3: GTCCGACCACGCATCAGC
modifications: 8-oxodG at 3' end of strand 1 (nt 11); 5'-phosphate on strand 2 (5'-AMP in crystal)
B1: the binding result (with LIG1 wild-type; in data set [1] (8-oxoG:C Watson-Crick pair at nick)) was “binds” in each case.

B2: nick 3'-8-oxodG:A (dsDNA)
DNA 1: GCTGATGCGTG
DNA 2: GTCGGAC
DNA 3: GTCCGACAACGCATCAGC
modifications: 8-oxodG at 3' end of strand 1 (nt 11); 5'-phosphate on strand 2 (5'-AMP in crystal)
Turning to B2, the binding result in data set [1] (8-oxoG:A Hoogsteen pair at nick) was “binds”.

B3: nick 3'-8-oxorG:A (mixed)
DNA 1: GCTGATGCGTG
DNA 2: GTCGGAC
DNA 3: GTCCGACAACGCATCAGC
modifications: 8-oxo-riboG at 3' end of strand 1 (nt 11), rest DNA; 5'-phosphate on strand 2; strands 1 and 2 ligated in the crystal
As to B3, the binding result in data set [2] is on record as “binds”.

B4: nick 3'-8-oxorG:C (mixed)
DNA 1: GCTGATGCGTG
DNA 2: GTCGGAC
DNA 3: GTCCGACCACGCATCAGC
modifications: 8-oxo-riboG at 3' end of strand 1 (nt 11), rest DNA; 5'-phosphate on strand 2 (5'-AMP in crystal)
In the case of B4, the binding result in data set [1] (8-oxorG:C Watson-Crick pair at nick) was “binds”.

Values taken from article PMC12693511, “Processing of DNA single-strand breaks with oxidatively damaged ends by LIG1”.
